Data on 41 sequences can be found in the nanobody polyreactivity screen of Harvey et al. (2022).

A short description of the series: yeast display, Sf9 membrane polyspecificity reagent, FACS + sequencing; frameworks hold sequencing errors. In a few lines: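 A nanobody's polyreactivity label depends on the gate it was sorted from. Yeast display cells were stained with 10% biotinylated, detergent-solubilized Sf9 membrane reagent for 1 hour at 4 °C, enriched on streptavidin microbeads and sorted by FACS. The low and high (top ~1%) gates were set on anti-HA fluorescence for expression and streptavidin fluorescence for reagent binding.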
“QVQLVESGGGLVQAGGSLRLSCAASGRTFQSYAMGRYRQGPGKEREFVAVISRSGGDTYYADSVKGRFTISRDNAKNTVYLLMNSLKPEDTAVYYCARGYTWFYADCPEYDYWGQGTQVTVSS”: the “polyreactivity (PSR sort gate)” value was “high polyreactivity”.
With “QVQLVESGGGLVQAGGSLRLSCAASGRTFQSYAMGWYRQAPGKERELVAAITITGGRTYYADSVKGRFTISRDNAKNTVYLQMNSLKPEDTAVYYCADYDYWGQGTQVTVSS”, the “polyreactivity (PSR sort gate)” value is “low polyreactivity”.
Consider “QVQLVESGGGLVQAGGSLRLSCAASGRTFQTNAMGWYRQAPGKVRELVAAISSTGGSTYYADSVKGRFTISRDNAKYTVYLQMNSLKPEDTAVYYCNAGRTYRYDYWGQGTQVTVSS”, for which the “polyreactivity (PSR sort gate)” value is on record as “high polyreactivity”.
To “QVQLVESGGGLVQAGGSLRLSCAASGRTFQTYAMGWYRQAPGKERELVASINWSDGSTYYADSVKGRFTISRDNAKNTVYLQMNSLKPEDTAVYYCAADSSAWLYDYWGQGTQVTVSS” belongs “low polyreactivity”; to “QVQLVESGGGLVQAGGSLRLSCAASGRTFQTYARGWYRQAPGKERELVAAISKSGGGTYYADSVKGRFTISRDNAKNTVYLQMNSLKPEDTAVYYCATAGYHYRAWGGRYDYWGQGTQVTVSS”, “high polyreactivity”; to “QVQLVESGGGLVQAGGSLRLSCAASGRTFQVYAMGWYTQAPGKERELVADITGRGGITYYADSVKGRFTISRDNAKNTVYLQMNSLKPEDTAVYYCAAERYNYKTIYRYDYWGQGTQVTVSS”, “high polyreactivity”.
The same measure for “QVQLVESGGGLVQAGGSLRLSCAASGRTFQYNAMGWYRQAPGKERELVAAISSSGGSTYYADSVKGRFTISRDNAKNTVYLQMNSLKPEDTAVYYCNAYSQSWNFYGDGDYWGQGSQVTVSS”: “low polyreactivity”; for “QVQLVESGGGLVQAGGSLRLSCAASGRTFQYYAMGWYIQGPGKERELVAAISWSGGSTYYADSVKGRFTISRDNAKNTVYLQMNSLKPEDTAVYFCAAVVGRNRTRSYGYWGQGTQVTVSS”: “high polyreactivity”; for “QVQLVESGGGLVQAGGSLRLSCAASGRTFQYYAMGWYRQAPGKERELVAAINQGGGRTYYADSVKGRFTISRDTAKNTVYLQMNSLKPEDTAVYYCAADGLSKFDYWGQGTQVTVSS”: “low polyreactivity”.
Consider “QVQLVESGGGLVQAGGSLRLSCAASGRTFQYYAMGWYRQAPGKERELVAAITSGGSTYYADSVTGRFTISRDNAKYTVYLQLNSLKPEDTAVYYCDATFYYSGHDDYWGQGTLVTVSS”, for which the “polyreactivity (PSR sort gate)” value is “low polyreactivity”.
To “QVQLVESGGGLVQAGGSLRLSCAASGRTFQYYAMGWYRQAPGQERELVAAITSGGSTYYADSVKGRFTISRDNAKNTVYLQMNSLKPEDTAVYYCAATFYYSGHYDYWGQGTQVTVSS” belongs “low polyreactivity”; to “QVQLVESGGGLVQAGGSLRLSCAASGRTFRANAMEWYRQAPGKEREFVAVISLSGGGTYADSVKGRFTISRDNAKNTVYLQMNSLKPEDTAVYYCNRVPRRREYFHSNYLALFDYWGQGTQVTVSW”, “low polyreactivity”.
In the case of “QVQLVESGGGLVQAGGSLRLSCAASGRTFRANAMGWYRQAPGKERELVAAITSTGDRTYYADSVKGRFTISRDNAKNTVYLQMNSLKPEDTAVYYCAAENNRYGGYRKYDYWGQGTQVTVSS”, the “polyreactivity (PSR sort gate)” value is recorded as “low polyreactivity”.
Consider “QVQLVESGGGLVQAGGSLRLSCAASGRTFRAYAMGWYRQAPGKERELVAAISYDGTRTYYADSVKGRFTISRDNAKNTVYLQMNSLKPEDTAVYYCNAVWVRGFYRVYDYWGQGTQVTVSS”, for which the “polyreactivity (PSR sort gate)” value is reported as “high polyreactivity”.
On to “QVQLVESGGGLVQAGGSLRLSCAASGRTFRCYAMGWDRQAPGKERELVAAITYSVGSTYYADSVKGRLTISRDTAKNTVYLQMNSLKPEDTAVYYCAADSYPYRYRGKYSRLDYCGQGTQVTVSS”, for which the “polyreactivity (PSR sort gate)” value was “low polyreactivity”.
With “QVQLVESGGGLVQAGGSLRLSCAASGRTFRFNAMGWYRQAPGKEREFVAAITSGGGTYYADSVKGRFTISRDNGKNTVYLQMNSLKPEDTAVYYCATVGKVHHRLVAMDYWGQGTQVTVSS”, the “polyreactivity (PSR sort gate)” value is recorded as “low polyreactivity”.
Take “QVQLVESGGGLVQAGGSLRLSCAASGRTFRFNAMGWYRQAPGKERELVAAISSRGGNTYYADSVKGRFTISRDNAKNTVYLQMNSLKPVDTSVYYCNKDLNYWGYAKYYGYYYWGQGTQVTVSS”: the “polyreactivity (PSR sort gate)” value was “high polyreactivity”.
For “QVQLVESGGGLVQAGGSLRLSCAASGRTFRFYAMGWYRQAPGKERELVAAIRWSGGSTYYADSVKGRFTISRDNAKNTVYLQMNSLKPEDTAVYYCNADNRWPFGGWYGLDYWGQGTQVTVSS”, the “polyreactivity (PSR sort gate)” value was “high polyreactivity”.
In the case of “QVQLVESGGGLVQAGGSLRLSCAASGRTFRGNAMGWYRQAPGKERELVAAIRYRGGSTYYADSVKGRFTISRDNAKNTVYLQMNSLKPEDTAVYYCARRYTVHTQHYDYWGQGTQVTVSS”, the “polyreactivity (PSR sort gate)” value is given as “high polyreactivity”.
Regarding “QVQLVESGGGLVQAGGSLRLSCAASGRTFRGNAMGWYRQAPGKERELVAAISRSGGRTYYADSVKGRFTISRDNAKNTVYLQMNSLKPEDTAVYYCNARSYRRWGYYKQAPNGDYWGQGTQVTVSS”, the “polyreactivity (PSR sort gate)” value is “high polyreactivity”.
The same measure for “QVQLVESGGGLVQAGGSLRLSCAASGRTFRGNAMGWYRQAPGKERELVATINSGASTNYADSVKGRFTISRDNAKNPVYLQMNSLNPEDTAVYYCAAVKYFRWKYNYWGQGTQVTVSS”: “high polyreactivity”; for “QVQLVESGGGLVQAGGSLRLSCAASGRTFRGNDMGWYRQAPGKEWELVATITRNGGSTRYADSVKGRFTISRDNAKNTVYLQMNSLKPEDTAVYYCNARSRYFGYDYWGQGTQVTVSS”: “high polyreactivity”; for “QVQLVESGGGLVQAGGSLRLSCAASGRTFRGYAMGWYRPAPGKERELVAVISRGGRTNYADSVKGRFTISRDNAKNTVYLQMNSLKPEDTAVSYCAAEVAFIYSLRYDYWGQGTQVTVSS”: “high polyreactivity”.
As for “QVQLVESGGGLVQAGGSLRLSCAASGRTFRGYAMGWYRQAPGKERELGAAITSSGGRTYYADSVKGRFTISRDNAKNTVYLQMNSLKPVDTAVYYCAKDYYSPRGYDYWGQGTQVTVSS”, the “polyreactivity (PSR sort gate)” value is “high polyreactivity”.
“QVQLVESGGGLVQAGGSLRLSCAASGRTFRGYAMGWYRQAPGKERELVAGIRRGGSTNYADSVKGRFTISRDNSKNTVSLQMNSLKPEDTAVYYCAKTYTVSQPSLRTYYYWGQGTQVTVSS”: the “polyreactivity (PSR sort gate)” value is recorded as “high polyreactivity”.
Take “QVQLVESGGGLVQAGGSLRLSCAASGRTFRINAMGWYRQAPGKERELVAAISFRTDSTYYADSVKGRFTISRDNAKNTVYLQMNSLKPEDTAVYYCDARGLQVRTYDYWGQGTQVTVSS”: the “polyreactivity (PSR sort gate)” value is given as “high polyreactivity”.
For “QVQLVESGGGLVQAGGSLRLSCAASGRTFRKNAMGWSRQAPGKDRELVAAISASGTSTYYADSVKGRFTISRDNAKNTVYLQLNSLKPEDTAVYYSAARSYGIYDYWGQGTQVTVSS”, the “polyreactivity (PSR sort gate)” value is “high polyreactivity”.
The same measure for “QVQLVESGGGLVQAGGSLRLSCAASGRTFRKYGMGWYRPAPGTERELVAAITRSGGSTYYADSVKGRFTISRDNAKNTVYLQMNCLKPEDTSVYYCARSPVVVGSFLSYDYLGQGTQVTVSS”: “high polyreactivity”; for “QVQLVESGGGLVQAGGSLRLSCAASGRTFRLNAMGWYRQAPGKERELVAGIRVRAGTTYYADSVKGRFTISRDNAKNTVYLQRNSLKPEDTAVYYCAAESYSRSRKYDYWGQGTQVTVSS”: “high polyreactivity”; for “QVQLVESGGGLVQAGGSLRLSCAASGRTFRLNGMGWYRQAPGKERELVAAITWSGGRTDYADSVKGRFTISRDNAKNTVYLQMNSLKPEDTAVYYCAAGKSSYGKPKYYYWGQGTQVTVSS”: “high polyreactivity”.
“QVQLVESGGGLVQAGGSLRLSCAASGRTFRLNVMGWYRQAPGKERELVATISWSGGTTYYADSVKGRFTISRDNAKNTVYFQMNCLKPEDTAVYYCNRQVTWYPTGGYWGQGTQVTVSS”: the “polyreactivity (PSR sort gate)” value is recorded as “low polyreactivity”.
Regarding “QVQLVESGGGLVQAGGSLRLSCAASGRTFRLYAMGWYRDATGKERELFAAISRRGTSTHYADSVKGRFTISRDNAKNTVYLQMNSLKPEDTAVYYCAVDSNTYSFYGTHDDWGQGTQVTVSS”, the “polyreactivity (PSR sort gate)” value was “high polyreactivity”.
To “QVQLVESGGGLVQAGGSLRLSCAASGRTFRLYAMGWYRQAPGKERELVAAISWRGGRTYYADSVKGRFTISRDNAKNTVYLQMNSLKPEDTAVYYCAAEDGYGQYDYWGQGTQVTVSS” belongs “high polyreactivity”.
“QVQLVESGGGLVQAGGSLRLSCAASGRTFRLYAMGWYRQAPGKERELVATITSSGGSTYYADSVKGRFTISRDKAKNTVYLQMNSLKPEDTAVYYCAAQTYYSYDYWGQGTQVTVSS”: the “polyreactivity (PSR sort gate)” value is given as “low polyreactivity”.
For the sequence “QVQLVESGGGLVQAGGSLRLSCAASGRTFRNNAMGWYRQAPGKERELVAAISRTGGRTYYADSVKGRFTISRDNAKNTVYLQMNSLKPEDTAVYYCNAAYLVREYDYWGQGTQVTVSS”, the “polyreactivity (PSR sort gate)” value is “high polyreactivity”.
To “QVQLVESGGGLVQAGGSLRLSCAASGRTFRNYAMGWYRQAPGKERELVAAISRSGGITYYADSVKGRFTISRDNSKNTVYLQMNSLKPEDTAVYYCAARHTYQGPGTYPMFYWGQGTQVTVSS” belongs “high polyreactivity”; to “QVQLVESGGGLVQAGGSLRLSCAASGRTFRPYAMGWDRQAPGKEREFVAAIRSSGDSTYYADSVKGRFTISRDNAKNTVYLQMNSLKPEDTAVYYCAADVYRYRVRGMNYWGQGTQVTVSS”, “high polyreactivity”.
“QVQLVESGGGLVQAGGSLRLSCAASGRTFRPYAMGWYRQAPGKERELVAAIDSSGTSTYYADSVKGRFTISRDNAKNTVYLQMYSLKPEDTAVYYCAKAWPDHWYSRYDYWGQGTQVTVSS”: the “polyreactivity (PSR sort gate)” value is “low polyreactivity”.
The same measure for “QVQLVESGGGLVQAGGSLRLSCAASGRTFRPYAMGWYRQAPGKERELVAAITSCGSTYYADSVKGRFTISRDNAKNTVYLQMNSLKPEDTAVYYCNAKYYYQPPYDYWGQGTQVTVSS”: “low polyreactivity”.
In the case of “QVQLVESGGGLVQAGGSLRLSCAASGRTFRPYAMGWYRQAPGKERELVAAITSGVSTYYADSVKGRFTISRDNAKNTVYLQMNSLKPEDTAVYYCNKVISREVGIRMDYWGQGTQVTVSS”, the “polyreactivity (PSR sort gate)” value is “high polyreactivity”.
With “QVQLVESGGGLVQAGGSLRLSCAASGRTFRQYAMGWYRQAPGKERELVATISSGGSTYYADSVKGRFTISRDNAKNTVYLLMNSLKPEDTAVYYCAAPYWARKYWRKFGPFDYWGQGTQVTVSS”, the “polyreactivity (PSR sort gate)” value was “low polyreactivity”.
